Assay results: the supplement of paper PMC10065799, “High-throughput profiling of sequence recognition by tyrosine kinases and SH2 domains using bacterial peptide display” (eLife, 2023)

What follows are sequences tested against FGFR3 (UniProt P22607) (assay: phosphorylation enrichment, bacterial display (enrichment ratio); higher = better substrate or ligand; peptides without Tyr show the background).
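Further: 11-residue human phosphosite peptides and single-mutation variants displayed on the E. coli surface, counted by deep sequencing, each peptide's frequency after selection divided by its frequency in the unselected input library; frequency after pTyr selection over input frequency; kinase dosed for 20-30% of maximal phosphorylation in three min.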

FGFR3, sequence (P22607 whole entry, looked up): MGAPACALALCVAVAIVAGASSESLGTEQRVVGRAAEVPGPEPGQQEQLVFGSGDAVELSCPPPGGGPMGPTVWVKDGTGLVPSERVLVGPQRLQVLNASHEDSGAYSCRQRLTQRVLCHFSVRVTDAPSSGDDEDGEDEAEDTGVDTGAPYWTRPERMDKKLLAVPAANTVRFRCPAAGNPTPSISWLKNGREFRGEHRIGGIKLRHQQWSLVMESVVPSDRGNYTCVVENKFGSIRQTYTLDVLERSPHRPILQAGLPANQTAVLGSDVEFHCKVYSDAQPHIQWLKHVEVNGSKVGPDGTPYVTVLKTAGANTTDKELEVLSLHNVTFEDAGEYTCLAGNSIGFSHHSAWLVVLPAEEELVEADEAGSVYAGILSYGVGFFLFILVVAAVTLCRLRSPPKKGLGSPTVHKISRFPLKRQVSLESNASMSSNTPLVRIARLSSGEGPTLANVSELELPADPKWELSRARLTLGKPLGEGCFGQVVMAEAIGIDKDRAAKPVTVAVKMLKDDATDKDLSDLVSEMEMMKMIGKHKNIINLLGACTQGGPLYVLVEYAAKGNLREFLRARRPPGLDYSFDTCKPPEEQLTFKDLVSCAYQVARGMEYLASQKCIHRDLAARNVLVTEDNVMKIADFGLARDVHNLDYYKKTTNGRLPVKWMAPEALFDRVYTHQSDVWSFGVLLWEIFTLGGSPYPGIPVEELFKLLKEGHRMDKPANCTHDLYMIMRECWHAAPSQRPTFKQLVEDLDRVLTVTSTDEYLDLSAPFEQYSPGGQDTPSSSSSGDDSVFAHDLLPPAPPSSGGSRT

Sequence	phosphorylation enrichment
MEKEKYVSFIS [JMJD1C_Y596_YF]	0.55
ARSHIYTLASC [MEFV_Y741_F743L]	0.68
VFFGSYSCPFG [NKAP_Y104_R106C_YF]	0.92
LYEDRYLLGTS [ASS1_Y87]	0.95
FMCKVYSDRQP [FGFR1_Y280_P283R]	0.808
ELTTCYRKKCS [CCBE1_Y70_C75S]	0.501
GYEEAYSVSKK [PAFAH1B1_Y28_F31S]	0.607
SSQHRYSTPHT [RAF1_Y232_A237T]	0.369
VIKSSYQVAKA [CPT1B_Y534_E531K]	0.428
KDGNGYISVAE [CALM3_Y100_A103V]	0.473
GKANRYFSPNF [PTEN_Y336_D331G]	0.685
KGYCGYSYDDI [TMEM230_Y110_R108C]	0.823
SQSKGYRPKLY [SIPA1L3_Y1376_G1371S]	0.33
SVVVPYDPPEV [TP53_Y220_E221D]	0.711
FPKAHYHWLVL [APTX_Y214_R213H_YF]	1.87
TPGPNYCPGFN [USH2A_Y463_R464C_YF]	0.35
SGKSEYLLPVA [MYLK_Y611_R607G]	0.554

Sequence	phosphorylation enrichment
YHRQLYHKCTH [F12_Y58]	0.606
RRAKGYPINLY [ITGB2_Y125_D128N]	0.605
ILGRTHYVNHE [NEDD4_Y627_Y627H]	0.434
KMKGEYFRFLA [YWHAG_Y130_D129E_YF]	2.58
KNEVFYQCPDQ [FBXO3_Y223]	1.49
PFVFFYSFLLK [PTEN_Y178_R173P_YF]	1.25
IPPRRYFRSGV [STAMBP_Y36]	0.61
PLQSEYSSITT [ITGB4_Y1760]	1.58
PVQAAYQKVVA [HBB_Y131]	0.591
QEKKGYFEDRC [GLUL_Y336_R341C]	0.716
GGEAIYAAPFA [Abl_opt_1995]	2.05
LNCDRYSAGLL [PDE6A_Y275_V277A]	0.612
EEQKKYYNATK [SCN5A_Y1494_M1498T]	0.554
PEFINYHQHNS [BTK_Y361_L358F]	0.947
PLSGEYFTLQI [TP53_Y327_D324S]	9.65
HSGVSYFINLC [IGF2R_Y2024_N2020S_YF]	0.835

These sequences were tested on Fer (mouse) in the same assay as above.

Sequence	phosphorylation enrichment
MEKEKYVSFIS [JMJD1C_Y596_YF]	0.35
ARSHIYTLASC [MEFV_Y741_F743L]	0.657
VFFGSYSCPFG [NKAP_Y104_R106C_YF]	0.679
LYEDRYLLGTS [ASS1_Y87]	4.27
FMCKVYSDRQP [FGFR1_Y280_P283R]	0.587
ELTTCYRKKCS [CCBE1_Y70_C75S]	0.362
GYEEAYSVSKK [PAFAH1B1_Y28_F31S]	0.469
SSQHRYSTPHT [RAF1_Y232_A237T]	0.425
VIKSSYQVAKA [CPT1B_Y534_E531K]	0.326
KDGNGYISVAE [CALM3_Y100_A103V]	0.442
GKANRYFSPNF [PTEN_Y336_D331G]	0.477
KGYCGYSYDDI [TMEM230_Y110_R108C]	0.89
SQSKGYRPKLY [SIPA1L3_Y1376_G1371S]	0.364
SVVVPYDPPEV [TP53_Y220_E221D]	0.465
FPKAHYHWLVL [APTX_Y214_R213H_YF]	0.645
TPGPNYCPGFN [USH2A_Y463_R464C_YF]	0.557
SGKSEYLLPVA [MYLK_Y611_R607G]	0.45

Sequence	phosphorylation enrichment
YHRQLYHKCTH [F12_Y58]	0.467
RRAKGYPINLY [ITGB2_Y125_D128N]	0.656
ILGRTHYVNHE [NEDD4_Y627_Y627H]	0.376
KMKGEYFRFLA [YWHAG_Y130_D129E_YF]	0.7
KNEVFYQCPDQ [FBXO3_Y223]	6.47
PFVFFYSFLLK [PTEN_Y178_R173P_YF]	0.983
IPPRRYFRSGV [STAMBP_Y36]	0.548
PLQSEYSSITT [ITGB4_Y1760]	1.83
PVQAAYQKVVA [HBB_Y131]	0.557
QEKKGYFEDRC [GLUL_Y336_R341C]	0.519
GGEAIYAAPFA [Abl_opt_1995]	20.5
LNCDRYSAGLL [PDE6A_Y275_V277A]	0.432
EEQKKYYNATK [SCN5A_Y1494_M1498T]	0.421
PEFINYHQHNS [BTK_Y361_L358F]	0.335
PLSGEYFTLQI [TP53_Y327_D324S]	0.722
HSGVSYFINLC [IGF2R_Y2024_N2020S_YF]	0.652

What follows are sequences tested against Fes (UniProt P07332) in the same assay as above.
Fes, sequence (P07332 whole entry, looked up): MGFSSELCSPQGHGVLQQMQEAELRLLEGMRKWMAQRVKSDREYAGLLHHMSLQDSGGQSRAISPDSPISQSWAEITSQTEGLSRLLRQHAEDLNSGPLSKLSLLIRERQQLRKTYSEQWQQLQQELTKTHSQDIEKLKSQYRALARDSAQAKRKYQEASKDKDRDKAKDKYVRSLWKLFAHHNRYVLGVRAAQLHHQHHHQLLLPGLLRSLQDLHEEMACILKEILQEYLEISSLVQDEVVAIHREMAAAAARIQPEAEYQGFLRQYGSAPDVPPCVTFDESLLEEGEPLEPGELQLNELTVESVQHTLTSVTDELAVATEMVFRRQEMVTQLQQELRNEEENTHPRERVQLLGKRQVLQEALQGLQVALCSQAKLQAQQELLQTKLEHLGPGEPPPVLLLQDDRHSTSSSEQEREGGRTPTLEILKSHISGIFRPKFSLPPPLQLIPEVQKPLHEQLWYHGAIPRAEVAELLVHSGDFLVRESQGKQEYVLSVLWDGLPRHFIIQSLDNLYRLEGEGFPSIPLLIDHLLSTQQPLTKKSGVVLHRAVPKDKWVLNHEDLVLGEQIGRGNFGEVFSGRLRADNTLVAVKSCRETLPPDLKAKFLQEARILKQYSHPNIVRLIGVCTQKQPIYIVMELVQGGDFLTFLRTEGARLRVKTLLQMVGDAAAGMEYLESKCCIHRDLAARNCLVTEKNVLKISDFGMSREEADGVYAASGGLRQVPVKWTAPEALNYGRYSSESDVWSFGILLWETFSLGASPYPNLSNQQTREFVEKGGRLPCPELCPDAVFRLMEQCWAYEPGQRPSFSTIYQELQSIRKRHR

Sequence	phosphorylation enrichment
MEKEKYVSFIS [JMJD1C_Y596_YF]	0.832
ARSHIYTLASC [MEFV_Y741_F743L]	1.13
VFFGSYSCPFG [NKAP_Y104_R106C_YF]	1.5
LYEDRYLLGTS [ASS1_Y87]	0.981
FMCKVYSDRQP [FGFR1_Y280_P283R]	1.54
ELTTCYRKKCS [CCBE1_Y70_C75S]	0.816
GYEEAYSVSKK [PAFAH1B1_Y28_F31S]	1.01
SSQHRYSTPHT [RAF1_Y232_A237T]	0.477
VIKSSYQVAKA [CPT1B_Y534_E531K]	0.749
KDGNGYISVAE [CALM3_Y100_A103V]	0.859
GKANRYFSPNF [PTEN_Y336_D331G]	0.612
KGYCGYSYDDI [TMEM230_Y110_R108C]	0.972
SQSKGYRPKLY [SIPA1L3_Y1376_G1371S]	0.651
SVVVPYDPPEV [TP53_Y220_E221D]	1.08
FPKAHYHWLVL [APTX_Y214_R213H_YF]	1.29
TPGPNYCPGFN [USH2A_Y463_R464C_YF]	0.643
SGKSEYLLPVA [MYLK_Y611_R607G]	0.89

Sequence	phosphorylation enrichment
YHRQLYHKCTH [F12_Y58]	0.795
RRAKGYPINLY [ITGB2_Y125_D128N]	0.932
ILGRTHYVNHE [NEDD4_Y627_Y627H]	0.593
KMKGEYFRFLA [YWHAG_Y130_D129E_YF]	0.93
KNEVFYQCPDQ [FBXO3_Y223]	1.55
PFVFFYSFLLK [PTEN_Y178_R173P_YF]	2.12
IPPRRYFRSGV [STAMBP_Y36]	0.676
PLQSEYSSITT [ITGB4_Y1760]	2.13
PVQAAYQKVVA [HBB_Y131]	0.438
QEKKGYFEDRC [GLUL_Y336_R341C]	1.29
GGEAIYAAPFA [Abl_opt_1995]	1.11
LNCDRYSAGLL [PDE6A_Y275_V277A]	0.834
EEQKKYYNATK [SCN5A_Y1494_M1498T]	0.673
PEFINYHQHNS [BTK_Y361_L358F]	0.607
PLSGEYFTLQI [TP53_Y327_D324S]	1.62
HSGVSYFINLC [IGF2R_Y2024_N2020S_YF]	1.51

What follows are sequences tested against Fyn (UniProt P06241) in the same assay as above.
Fyn, sequence (P06241 whole entry, looked up): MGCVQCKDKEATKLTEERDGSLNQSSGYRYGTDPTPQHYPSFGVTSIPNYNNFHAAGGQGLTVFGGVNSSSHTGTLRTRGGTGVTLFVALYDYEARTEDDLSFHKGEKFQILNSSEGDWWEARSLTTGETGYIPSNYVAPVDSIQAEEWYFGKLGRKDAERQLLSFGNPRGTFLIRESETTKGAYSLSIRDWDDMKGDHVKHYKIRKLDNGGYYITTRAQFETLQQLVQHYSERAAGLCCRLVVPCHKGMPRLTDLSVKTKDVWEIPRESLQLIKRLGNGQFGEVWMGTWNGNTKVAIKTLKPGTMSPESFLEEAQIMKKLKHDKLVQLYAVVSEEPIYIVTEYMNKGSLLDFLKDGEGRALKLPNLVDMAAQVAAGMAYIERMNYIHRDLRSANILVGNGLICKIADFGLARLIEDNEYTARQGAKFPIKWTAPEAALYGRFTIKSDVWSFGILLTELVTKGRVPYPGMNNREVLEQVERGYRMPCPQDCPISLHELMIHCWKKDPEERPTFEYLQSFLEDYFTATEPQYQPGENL

Sequence	phosphorylation enrichment
MEKEKYVSFIS [JMJD1C_Y596_YF]	0.348
ARSHIYTLASC [MEFV_Y741_F743L]	2.13
VFFGSYSCPFG [NKAP_Y104_R106C_YF]	0.437
LYEDRYLLGTS [ASS1_Y87]	1.79
FMCKVYSDRQP [FGFR1_Y280_P283R]	0.544
ELTTCYRKKCS [CCBE1_Y70_C75S]	0.454
GYEEAYSVSKK [PAFAH1B1_Y28_F31S]	0.435
SSQHRYSTPHT [RAF1_Y232_A237T]	0.348
VIKSSYQVAKA [CPT1B_Y534_E531K]	0.34
KDGNGYISVAE [CALM3_Y100_A103V]	0.407
GKANRYFSPNF [PTEN_Y336_D331G]	0.479
KGYCGYSYDDI [TMEM230_Y110_R108C]	0.468
SQSKGYRPKLY [SIPA1L3_Y1376_G1371S]	0.344
SVVVPYDPPEV [TP53_Y220_E221D]	0.48
FPKAHYHWLVL [APTX_Y214_R213H_YF]	0.447
TPGPNYCPGFN [USH2A_Y463_R464C_YF]	0.578
SGKSEYLLPVA [MYLK_Y611_R607G]	0.453

Sequence	phosphorylation enrichment
YHRQLYHKCTH [F12_Y58]	0.378
RRAKGYPINLY [ITGB2_Y125_D128N]	0.963
ILGRTHYVNHE [NEDD4_Y627_Y627H]	0.373
KMKGEYFRFLA [YWHAG_Y130_D129E_YF]	1.75
KNEVFYQCPDQ [FBXO3_Y223]	1.03
PFVFFYSFLLK [PTEN_Y178_R173P_YF]	0.679
IPPRRYFRSGV [STAMBP_Y36]	0.639
PLQSEYSSITT [ITGB4_Y1760]	1.58
PVQAAYQKVVA [HBB_Y131]	0.418
QEKKGYFEDRC [GLUL_Y336_R341C]	0.609
GGEAIYAAPFA [Abl_opt_1995]	13.1
LNCDRYSAGLL [PDE6A_Y275_V277A]	0.512
EEQKKYYNATK [SCN5A_Y1494_M1498T]	0.467
PEFINYHQHNS [BTK_Y361_L358F]	0.552
PLSGEYFTLQI [TP53_Y327_D324S]	4.49
HSGVSYFINLC [IGF2R_Y2024_N2020S_YF]	0.44
